Assay results published in US20220403048A1, “BINDING MOLECULES TO ARGINASE II [ARG2]” (Cancer Research Technology Limited, priority 2019, published 2022).
One block for each binder: values may come before it.

Tests used:
[1] = target: recombinant human trimeric ARG2 enzyme (construct not given) (human) (UniProt P78540); assay: cell-based or functional assay
[2] = target: biotinylated recombinant human trimeric ARG2 enzyme (Avi-huARG2-His10) (human) (UniProt P78540); assay: HTRF epitope competition, scFv titrated, competitor C0020187 IgG, on biotinylated human trimeric ARG2
[3] = target: recombinant human trimeric ARG2 enzyme (construct not given) (human) (UniProt P78540); assay: dynamic light scattering, 8 µM each
Target sequence in this assay (P78540 23-354, form in doubt): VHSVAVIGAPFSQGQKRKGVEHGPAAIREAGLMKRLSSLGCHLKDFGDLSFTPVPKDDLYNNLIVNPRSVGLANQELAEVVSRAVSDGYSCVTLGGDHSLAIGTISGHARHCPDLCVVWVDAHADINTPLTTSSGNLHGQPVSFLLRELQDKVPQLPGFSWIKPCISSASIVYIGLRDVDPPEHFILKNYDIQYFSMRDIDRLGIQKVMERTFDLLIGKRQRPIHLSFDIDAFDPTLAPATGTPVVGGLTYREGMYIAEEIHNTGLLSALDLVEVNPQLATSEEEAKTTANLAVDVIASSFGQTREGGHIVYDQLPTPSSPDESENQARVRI

[4] = target: recombinant human trimeric ARG2 enzyme (construct not given) (human) (UniProt P78540); assay: size-exclusion chromatography, 8 µM each
Target sequence in this assay (P78540 23-354, form in doubt): as above

Chain of biotinylated recombinant human trimeric ARG2 enzyme (Avi-huARG2-His10) (human) (P78540 other isoform, or with tags, fused parts or gaps limits assumed, form in doubt): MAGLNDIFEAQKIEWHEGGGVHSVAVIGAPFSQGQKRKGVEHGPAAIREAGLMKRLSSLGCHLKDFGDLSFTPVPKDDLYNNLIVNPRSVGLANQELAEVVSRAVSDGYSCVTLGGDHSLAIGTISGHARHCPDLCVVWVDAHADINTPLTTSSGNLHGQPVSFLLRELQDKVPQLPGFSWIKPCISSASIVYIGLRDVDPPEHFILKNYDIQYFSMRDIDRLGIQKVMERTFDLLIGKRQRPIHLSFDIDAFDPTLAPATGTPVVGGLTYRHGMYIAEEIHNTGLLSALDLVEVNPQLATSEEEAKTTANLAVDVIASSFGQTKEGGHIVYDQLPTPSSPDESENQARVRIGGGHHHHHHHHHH

- Trimeric human ARG2 EIA IC50 [1]: 97.6 nM
- IC50 [2]: 57.8 nM
B1: C0021142 scFv (scFv, part only; not given: linker, domain order, tag, V domains shown, not shown: another chain or arm of the molecule; small tags and cut ends)
VH: EVQLLESGGGLVQPGGSLRLSCAASGFTFSSYAMSWVRQAPGKGLEWVSAHTHSPGSTYYADSVKGRFTISRDNSKNTLYLQMNSLRAEDTAVYYCARLRADLGLYMDLWGRGTLVTVSS
VL: QSVLTQPPSVSAAPGQKVTISCSGSSSNIGNHYVSWYQQLPGTAPKLLIYDNSERPSGVPDRFSGSKSGTSATLGITGLQTGDEADYYCGTWDSSLSALVFGGGTKLTVL

- increase in average hydrodynamic radius (Rh) against ARG2-C0020187 Fab complexes [3]: 1.5 nm
- SEC peak of the 1:1 molar ARG2:Fab mixture [4]: 275 kDa
B2: C0021139 Fab (Fab, V domains shown)
VH: EVQLLESGGGLVQPGGSLRLSCAASGFTFQYDYQVWVRQAPGKGLEWVSAISGSGGSTYYADSVKGRFTISRDNSKNTLYLQMNSLRAEDTAVYYCARLRADLGLYMDLWGRGTLVTVSS
VL: QSVLTQPPSVSAAPGQKVTISCSGSSSNIGNHYVSWYQQLPGTAPKLLIYDNSERTSGIPDRFSGSKSGTSATLGITGLQTGDEADYYCGTWDELTSNLVFGGGTKLTVL

- EC50, In Presence of rhARG2 (T cell proliferation) [1]: > 2 µM
- Maximum % Proliferation, In Presence of rhARG2 [1]: 49%
B3: C0020065 recombinant human IgG1 (antibody, V domains shown)
VH: GVNLRESGGGVVQPGRSLRLSCAASGFTFSSYAMHWVRQAPGKGLEWVAVISYDGSNKYYVDSVKGRFTISRDNSKNTLYLQMNSLRAEDTAVYYCARDSSQLWFDYWGRGTLVTVSS
VL: QSVVTQPPSVSGAPGQRVTISCTGSSSNIGTGYDVHWYQQLPGTAPKLLIYGNSNRPSGVPDRFSGSKSGTSASLAITGLQAEDEADYYCQSYDSSLSGSVVFGGGTQLTVL
